Data as given in patent US20240261423A1 (Pfizer, published 2024).

B1: EDB-(K94R)-vc-0101 (antibody, human IgG1, kappa)
heavy: not shown
light: EIVLTQSPGTLSLSPGERATLSCRASQSVSSSFLAWYQQKPGQAPRLLIYYASSRATGIPDRFSGSGSGTDFTLTISRLEPEDFAVYYCQQTGRIPPTFGQGTKVEIKRTVAAPSVFIFPPSDEQLKSGTASVVCLLNNFYPREAKVQWKVDNALQSGNSQESVTEQDSKDSTYSLSSTLTLSKADYEKHKVYACEVTHQGLSSPVTKSFNRGEC
modifications: vc-0101 linker-payload on cysteine residues (conventional conjugation, Method A); vc-0101 linker-payload on cysteine residues (conventional conjugation, Method A); average DAR 3.7 (LC/MS)
B2: EDB-(κK183C-K94R-K290C)-vc-0101 (antibody, human IgG1, kappa)
heavy: not shown
light: EIVLTQSPGTLSLSPGERATLSCRASQSVSSSFLAWYQQKPGQAPRLLIYYASSRATGIPDRFSGSGSGTDFTLTISRLEPEDFAVYYCQQTGRIPPTFGQGTKVEIKRTVAAPSVFIFPPSDEQLKSGTASVVCLLNNFYPREAKVQWKVDNALQSGNSQESVTEQDSKDSTYSLSSTLTLSCADYEKHKVYACEVTHQGLSSPVTKSFNRGEC
modifications: vc-0101 linker-payload on engineered Cys 183 (κK183C, Kabat), Method B; vc-0101 linker-payload on engineered Cys 290 (K290C, EU index), Method B; average DAR 3.8 (LC/MS)

Biological target: EDB+FN (fibronectin containing the extra-domain B) on WI38-VA13 cells (human, UniProt P02751 32-2477)
Test: cell-based or functional assay

EDB+FN (fibronectin containing the extra-domain B) on WI38-VA13 cells, sequence (P02751 32-2477 limits assumed, form in doubt): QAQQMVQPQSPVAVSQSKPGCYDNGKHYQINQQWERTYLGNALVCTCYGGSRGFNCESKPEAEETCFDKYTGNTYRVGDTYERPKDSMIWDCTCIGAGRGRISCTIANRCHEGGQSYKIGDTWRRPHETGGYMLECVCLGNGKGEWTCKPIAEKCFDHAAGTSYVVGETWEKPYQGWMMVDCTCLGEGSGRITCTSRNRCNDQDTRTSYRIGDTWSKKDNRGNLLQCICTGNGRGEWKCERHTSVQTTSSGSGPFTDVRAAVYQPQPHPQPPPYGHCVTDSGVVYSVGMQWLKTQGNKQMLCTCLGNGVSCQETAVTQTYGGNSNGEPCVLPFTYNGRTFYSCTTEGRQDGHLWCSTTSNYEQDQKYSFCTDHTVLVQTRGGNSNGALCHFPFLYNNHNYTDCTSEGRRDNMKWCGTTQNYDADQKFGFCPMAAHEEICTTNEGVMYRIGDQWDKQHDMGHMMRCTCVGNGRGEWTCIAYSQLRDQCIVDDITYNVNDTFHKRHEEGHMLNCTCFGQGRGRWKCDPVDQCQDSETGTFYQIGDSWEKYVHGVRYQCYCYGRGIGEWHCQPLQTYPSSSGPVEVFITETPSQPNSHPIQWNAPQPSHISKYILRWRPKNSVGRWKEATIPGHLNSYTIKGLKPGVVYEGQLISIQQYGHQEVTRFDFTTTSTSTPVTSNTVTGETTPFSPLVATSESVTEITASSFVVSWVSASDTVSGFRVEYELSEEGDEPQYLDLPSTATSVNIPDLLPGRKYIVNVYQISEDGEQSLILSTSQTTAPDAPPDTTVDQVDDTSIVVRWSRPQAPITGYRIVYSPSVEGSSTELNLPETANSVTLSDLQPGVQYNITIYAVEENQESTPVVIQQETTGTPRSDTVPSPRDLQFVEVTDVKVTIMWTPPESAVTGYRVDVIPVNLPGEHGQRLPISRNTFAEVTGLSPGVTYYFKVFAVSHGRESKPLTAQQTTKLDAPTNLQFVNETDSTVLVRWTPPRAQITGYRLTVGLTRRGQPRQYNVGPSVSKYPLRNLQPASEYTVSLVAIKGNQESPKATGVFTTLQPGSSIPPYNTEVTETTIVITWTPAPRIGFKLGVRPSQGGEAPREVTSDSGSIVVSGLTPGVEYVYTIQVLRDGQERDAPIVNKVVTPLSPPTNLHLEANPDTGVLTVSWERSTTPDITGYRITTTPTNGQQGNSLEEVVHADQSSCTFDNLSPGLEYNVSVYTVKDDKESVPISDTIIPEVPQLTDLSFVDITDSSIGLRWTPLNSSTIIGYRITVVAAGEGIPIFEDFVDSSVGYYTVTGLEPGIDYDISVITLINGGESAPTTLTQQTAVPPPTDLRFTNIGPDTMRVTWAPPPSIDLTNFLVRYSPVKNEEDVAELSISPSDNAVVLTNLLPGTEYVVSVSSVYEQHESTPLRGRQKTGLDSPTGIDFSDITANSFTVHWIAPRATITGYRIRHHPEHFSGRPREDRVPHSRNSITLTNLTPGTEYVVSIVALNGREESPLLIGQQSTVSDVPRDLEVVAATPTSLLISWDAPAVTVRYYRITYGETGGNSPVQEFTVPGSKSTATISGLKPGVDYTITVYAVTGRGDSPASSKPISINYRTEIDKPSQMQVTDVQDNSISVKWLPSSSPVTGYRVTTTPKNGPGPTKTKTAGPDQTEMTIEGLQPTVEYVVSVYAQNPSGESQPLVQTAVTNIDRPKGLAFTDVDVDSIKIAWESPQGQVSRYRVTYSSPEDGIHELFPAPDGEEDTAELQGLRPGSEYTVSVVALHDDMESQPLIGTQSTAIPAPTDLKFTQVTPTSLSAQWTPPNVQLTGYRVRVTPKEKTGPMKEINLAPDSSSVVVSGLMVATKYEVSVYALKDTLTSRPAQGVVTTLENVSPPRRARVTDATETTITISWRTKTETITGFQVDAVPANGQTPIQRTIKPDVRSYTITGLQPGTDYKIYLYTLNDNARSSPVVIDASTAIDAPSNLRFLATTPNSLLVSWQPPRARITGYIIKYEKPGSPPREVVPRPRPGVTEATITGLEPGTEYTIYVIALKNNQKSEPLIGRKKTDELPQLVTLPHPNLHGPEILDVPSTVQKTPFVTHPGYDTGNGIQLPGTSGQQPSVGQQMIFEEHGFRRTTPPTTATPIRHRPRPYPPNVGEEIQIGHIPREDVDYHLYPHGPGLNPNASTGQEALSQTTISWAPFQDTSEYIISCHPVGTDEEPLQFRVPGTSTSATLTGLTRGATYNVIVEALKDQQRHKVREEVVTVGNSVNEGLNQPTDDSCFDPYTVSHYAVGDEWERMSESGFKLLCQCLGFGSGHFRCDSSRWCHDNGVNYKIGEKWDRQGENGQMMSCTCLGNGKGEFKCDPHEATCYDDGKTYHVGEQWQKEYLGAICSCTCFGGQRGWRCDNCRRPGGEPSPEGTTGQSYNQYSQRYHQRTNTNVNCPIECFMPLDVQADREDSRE

Binder	Avg IC50, in vitro cytotoxicity on WI38-VA13 cells (Cell Titer Glo, 4 days)
B1	184 ng/ml of antibody
B2	216 ng/ml of antibody
